Data from patent publication US20180133295A1 (AMAL THERAPEUTICS, published 2018).

B1: AnaxaZ13Mad5 (other)
chain: MHHHHHHSTVHEILCKLSLEGDHSTPPSAYGSVKPYTNFDAEKRYKNRVASRKSRAKFKQLLQHYREVAAAKSSENDRLRLLLKESLKISQAVHAAHAEINEAGREVVGVGALKVPRNQDWLGVPRFAKFASFEAQGALANIAVDKANLDVEQLESIINFEKLTEWTGS
notes: Recombinant fusion protein; 18973 Da; also called AnaxZ13Mad5
B2: EDAZ13Mad5 (other)
chain: MHHHHHHNIDRPKGLAFTDVDVDSIKIAWESPQGQVSRYRVTYSSPEDGIRELFPAPDGEDDTAELQGLRPGSEYTVSVVALHDDMESQPLIGIQSTKRYKNRVASRKSRAKFKQLLQHYREVAAAKSSENDRLRLLLKESLKISQAVHAAHAEINEAGREVVGVGALKVPRNQDWLGVPRFAKFASFEAQGALANIAVDKANLDVEQLESIINFEKLTEWTGS
notes: Recombinant fusion protein; 25057 Da; also called fusion protein of TLR4 peptide agonist EDA, cell-penetrating peptide Z13 and MAD5 cargo
B3: Z13Mad5Anaxa (other)
chain: MHHHHHHKRYKNRVASRKSRAKFKQLLQHYREVAAAKSSENDRLRLLLKESLKISQAVHAAHAEINEAGREVVGVGALKVPRNQDWLGVPRFAKFASFEAQGALANIAVDKANLDVEQLESIINFEKLTEWTGSSTVHEILCKLSLEGDHSTPPSAYGSVKPYTNFDAE
notes: Recombinant fusion protein; 18973 Da; also called fusion protein of cell-penetrating peptide Z13, MAD5 cargo and TLR peptide agonist Anaxa (C-terminal)

Columns and labels:
human TLR2 = target: T1, human TLR2 (human, UniProt O60603 21-784); assay: HEK-Blue hTLR2 cells, NF-κB/AP1 reporter and IL-8 ELISA; binding inferred from activation
T1 construct: whole, on cells; Expressed on the HEK-Blue hTLR2 reporter cell line; also called hTLR2; Toll-like receptor 2

human TLR4 = target: T2, human TLR4 (human, UniProt O00206 24-839); assay: HEK-hTLR4 cells, IL-8 ELISA; binding inferred from activation
T2 construct: whole, on cells; also called hTLR4; Toll-like receptor 4
T2 sequence (O00206 24-839): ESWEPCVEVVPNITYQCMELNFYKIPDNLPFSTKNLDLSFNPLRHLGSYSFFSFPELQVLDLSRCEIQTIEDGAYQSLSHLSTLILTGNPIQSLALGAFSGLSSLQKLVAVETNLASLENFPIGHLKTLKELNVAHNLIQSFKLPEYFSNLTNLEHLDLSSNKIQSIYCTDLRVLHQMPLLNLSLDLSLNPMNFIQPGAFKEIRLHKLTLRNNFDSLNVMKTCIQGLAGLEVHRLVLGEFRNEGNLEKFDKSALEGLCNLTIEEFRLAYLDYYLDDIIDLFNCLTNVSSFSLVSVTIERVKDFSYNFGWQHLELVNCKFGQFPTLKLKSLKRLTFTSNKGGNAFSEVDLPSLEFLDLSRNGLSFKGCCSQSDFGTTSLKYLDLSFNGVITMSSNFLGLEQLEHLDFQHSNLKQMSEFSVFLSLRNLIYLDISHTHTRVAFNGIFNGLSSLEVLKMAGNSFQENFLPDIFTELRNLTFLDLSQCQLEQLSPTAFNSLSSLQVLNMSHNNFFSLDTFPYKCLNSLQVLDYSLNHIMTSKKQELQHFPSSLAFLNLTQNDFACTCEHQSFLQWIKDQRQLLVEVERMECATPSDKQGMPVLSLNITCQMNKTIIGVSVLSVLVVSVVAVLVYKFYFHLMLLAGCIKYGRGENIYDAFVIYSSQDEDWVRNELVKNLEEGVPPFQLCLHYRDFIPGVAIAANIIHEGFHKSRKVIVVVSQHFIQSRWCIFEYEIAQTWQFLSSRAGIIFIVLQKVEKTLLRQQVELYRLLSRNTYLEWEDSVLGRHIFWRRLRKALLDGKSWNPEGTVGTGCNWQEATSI

T1 sequence (O60603 21-784): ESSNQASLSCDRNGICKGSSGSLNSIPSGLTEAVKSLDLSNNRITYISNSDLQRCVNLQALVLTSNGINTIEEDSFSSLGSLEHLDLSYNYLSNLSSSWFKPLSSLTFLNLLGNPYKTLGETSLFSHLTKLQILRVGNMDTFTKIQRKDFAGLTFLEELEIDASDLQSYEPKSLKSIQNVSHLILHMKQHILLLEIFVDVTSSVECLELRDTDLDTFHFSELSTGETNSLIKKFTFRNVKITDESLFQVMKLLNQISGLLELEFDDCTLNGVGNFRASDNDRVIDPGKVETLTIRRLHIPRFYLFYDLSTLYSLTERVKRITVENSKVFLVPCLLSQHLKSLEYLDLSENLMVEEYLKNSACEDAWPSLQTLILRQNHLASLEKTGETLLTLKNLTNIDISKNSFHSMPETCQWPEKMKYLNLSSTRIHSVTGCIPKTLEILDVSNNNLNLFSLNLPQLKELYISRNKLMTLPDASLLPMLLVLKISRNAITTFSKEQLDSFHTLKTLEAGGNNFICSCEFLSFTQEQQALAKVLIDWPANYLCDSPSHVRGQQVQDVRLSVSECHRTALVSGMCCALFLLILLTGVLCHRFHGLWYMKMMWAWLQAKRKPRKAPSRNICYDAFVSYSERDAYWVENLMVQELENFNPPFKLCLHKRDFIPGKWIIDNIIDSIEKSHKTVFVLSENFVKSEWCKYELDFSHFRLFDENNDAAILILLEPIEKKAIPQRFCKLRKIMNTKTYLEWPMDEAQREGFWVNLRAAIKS

Binder | binding result (human TLR2) | binding result (human TLR4)
B1 | binds | 
B2 |  | binds
B3 | binds | binds
